Results published in patent US20120100152A1 (Sanofi, published 2012).
Substitutions are numbered along the chain they refer to. Numbers in names are those of the source. Primed or numbered codes have the meaning given here. Ends that are not written are not given here. Biotin′ = not defined here

T1: human CD52 (wildtype) (human, not fully specified (residue 3); also: N-linked glycan, GPI anchor)
T1 construct: also called huCD52; hCD52
T1 chain: GQNDTSQTSSPS

T2: MUT 1 alanine-scanning mutant hCD52 peptide (human)
T2 construct: Synthetic
T2 peptide: AQNDTSQTSSPSADC

T3: MUT 2 alanine-scanning mutant hCD52 peptide (human)
T3 construct: Synthetic
T3 peptide: GANDTSQTSSPSADC

T4: MUT 3 alanine-scanning mutant hCD52 peptide (human)
T4 construct: Synthetic
T4 peptide: GQADTSQTSSPSADC

T5: MUT 5 alanine-scanning mutant hCD52 peptide (human)
T5 construct: Synthetic
T5 peptide: GQNDASQTSSPSADC

T6: MUT 6 alanine-scanning mutant hCD52 peptide (human)
T6 construct: Synthetic
T6 peptide: GQNDTAQTSSPSADC

T7: MUT 7 alanine-scanning mutant hCD52 peptide (human)
T7 construct: Synthetic
T7 peptide: GQNDTSATSSPSADC

T8: MUT 8 alanine-scanning mutant hCD52 peptide (human)
T8 construct: Synthetic
T8 peptide: GQNDTSQASSPSADC

T9: MUT 9 alanine-scanning mutant hCD52 peptide (human)
T9 construct: Synthetic
T9 peptide: GQNDTSQTASPSADC

T10: MUT 10 alanine-scanning mutant hCD52 peptide (human)
T10 construct: Synthetic
T10 peptide: GQNDTSQTSAPSADC

T11: MUT 12 alanine-scanning mutant hCD52 peptide (human)
T11 construct: Synthetic
T11 peptide: GQNDTSQTSSPAADC

T12: WT 1 wildtype human CD52 peptide (human, not fully specified (residue 15); printed as GQNDTSQTSSPSADK-Biotin)
T12 construct: Synthetic
T12 peptide: GQNDTSQTSSPSADK-{Biotin′}

T13: MUT 4 alanine-scanning mutant hCD52 peptide (human)
T13 construct: Synthetic
T13 peptide: GQNATSQTSSPSADC

B1: humanized antibody 4B10-H1/K1 (antibody, V domains shown)
VH: EVQLVESGGGLVQPGGSLRLSCAASGFTFSDYYMSWVRQAPGKGLEWVGFIRNKANGYTTEYSASVKGRFTISRDDSKNSLYLQMNSLKTEDTAVYYCARYIWFDYWGQGTTVTVSS
VL: DIVMTQTPLSLSVTPGQPASISCRSSQSLVHTNGNTYLHWYLQKPGQSPQLLIYMVSNRFSGVPDRFSGSGSGTDFTLKISRVEAEDVGVYYCSQSAHVPPLTFGQGTRLEIKR
notes: also called 4B10-Humanized; 4B10 humanized (H1/K1)
B2: chimeric 12G6 antibody (antibody, human IgG1, V domains shown)
VH: EVQLEESGGGLVQPGGSMKLSCVASGFPFSNYWMNWVRQSPEKGLEWVAQIRLKSNNYATHYAESVKGRFTIARDDSKSSVYLQMNNLRAEDTGIYYCTPIDYWGQGTTLTVSS
VL: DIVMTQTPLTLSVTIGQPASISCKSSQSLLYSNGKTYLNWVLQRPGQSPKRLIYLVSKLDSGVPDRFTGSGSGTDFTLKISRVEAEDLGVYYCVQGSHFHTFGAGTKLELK
notes: also called 12G6-Chi; 12G6-chimeric
B3: chimeric 2C3 antibody (antibody, human IgG1, V domains shown)
VH: B2 VH with Q3K, P28T, S30N, N31T, A73S, S79N, I101V, Y103F
VL: DIVITQTPLTLSVTIGQPVSISCKSSQSLLYSNGKTYLNWLLQRPGQSPKRLIYLVSKLDSGVPDRFTGSGSGTDFTLKISRVEAEDLGVYYCVQGTHLHTFGAGTKLELK
notes: also called 2C3-Chi; 2C3-chimeric
B4: humanized antibody 9D9-H16/K13 (antibody, V domains shown)
VH: EVQLLESGGGLVQPGGSLRLSCAASGFTFSDAWMDWVRQAPGKGLELVSEIRNKAKNHATYYAESVKGRFTISRDNSKNTLYLQMNSLRAEDTAVYYCTTLDSWGQGTTVTVSS
VL: DIVMTQTPLSLSVTPGQPASISCKSSQSLLDSDGKTYLNWLLQKPGQSPQRLIYLVSALDSGVPDRFSGSGSGTDFTLKISRVEAEDVGVYYCWQGTHFPWTFGQGTKLEIKR
B5: chimeric 9D9 antibody (antibody, human IgG1, V domains shown)
VH: EVKLEESGGGLVQPGGSMKLSCAASGFTFSDAWMDWVRQSPEKGLELTAEIRNKAKNHATYYAESVKGRFTISRDDSKSRVYLQMNSLRTEDTGIYYCTTLDSWGQGTSVTVSS
VL: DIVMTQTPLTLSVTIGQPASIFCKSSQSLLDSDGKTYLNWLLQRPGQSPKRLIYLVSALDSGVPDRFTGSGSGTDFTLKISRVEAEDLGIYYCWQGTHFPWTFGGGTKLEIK
notes: also called 9D9-Chi; 9D9-chimeric
B6: Campath-1H® (alemtuzumab) (antibody, IgG1, V domains shown)
VH: QVQLQESGPGLVRPSQTLSLTCTVSGFTFTDFYMNWVRQPPGRGLEWIGFIRDKAKGYTTEYNPSVKGRVTMLVDTSKNQFSLRLSSVTAADTAVYYCAREGHTAAPFDYWGQGSLVTVSS
VL: DIQMTQSPSSLSASVGDRVTITCKASQNIDKYLNWYQQKPGKAPKLLIYNTNNLQTGVPSRFSGSGSGTDFTFTISSLQPEDIATYYCLQHISRPRTFGQGTKVEIKR
notes: Humanized IgG1/kappa; also called C1H; C-1H; copies: 2 + 2
B7: humanized antibody 12G6-SFD1/K11 (antibody, human IgG1, V domains shown)
VH: EVQLVESGGGLVQPGGSLRLSCAASGFPFSNYWMNWVRQAPGKGLEWVGQIRLKSNNYATHYAESVKGRFTISRDDSKNSLYLQMNSLKTEDTAVYYCTPIDYWGQGTTVTVSS
VL: DIVMTQTPLSLSVTPGQPASISCKSSQSLLYSNGKTYLNWVLQKPGQSPKRLIYLVSKLDSGVPDRFSGSGSGTDFTLKISRVEAEDVGVYYCVQGSHFHTFGQGTKLEIK
notes: also called 12G6 K11; 12G6 hu
B8: humanized antibody 2C3-SFD1/K12 (antibody, V domains shown)
VH: B7 VH with P28T, S30N, N31T, I101V, Y103F
VL: DIVMTQTPLSLSVTPGQPASISCKSSQSLLYSNGKTYLNWLLQKPGQSPQRLIYLVSKLDSGVPDRFSGSGSGTDFTLKISRVEAEDVGVYYCVQGTHLHTFGQGTRLEIKR
notes: also called 2C3 K12; 2C3 unmodified
B9: humanized antibody 12G6-SFD1/K12 (antibody, V domains shown)
VH: B7 VH
VL: B8 VL with L41V, T97S, L99F, R107K
notes: also called 12G6 K12; GLD52

Columns and labels:
human CD52 (wildtype) [1] = molecular target: T1, human CD52 (wildtype); test: flow cytometry, CHO-CD52 cells, 12-point titration
Procedure: The EC50 values of selected anti-CD52 antibodies were estimated using CHO cells engineered to express CD52. CHO-CD52 cells were trypsinized in 0.25% trypsin, collected, and rinsed with PBS/5% FBS. Cells were then deposited into round-bottom 96 well plates at 1E5 cells per well. Primary antibody staining was done with a 12 point serial dilution (1:2) of each anti-CD52 chimeric antibody starting at 50 μg/mL. […] Cells were washed 3 times in ice-cold PBS/5% FBS before and after each incubation. Cells were fixed with PBS containing 2% methanol-free paraformaldehyde and evaluated by flow cytometry.

human CD52 (wildtype) [2] = molecular target: T1, human CD52 (wildtype); test: flow cytometry, human CD4+ T cells from PBMC, FITC goat F(ab)2 anti-human Fc gamma secondary, GraphPad Prism fit (Example 29)
Procedure: (§1) The EC₅₀ values of chimeric and humanized anti-CD52 antibodies were estimated using CD4+ T cells isolated from healthy donor PBMCs obtained from commercial sources (Bioreclamation, NY, USA). CD4+ T cells were isolated by negative selection using an EasySep kit (Stem Cell Technologies). […] Briefly, human CD4+ T cells were isolated from 50 ml of peripheral blood from healthy volunteers (Bioreclamation), and huCD52 transgenic mouse CD4+ T cells were isolated from spleen tissue. Cells were rinsed with PBS/5% FBS and deposited into round-bottom 96 well plates at 1×10⁵ cells per well. Primary antibody staining was done with an 8 point serial dilution (1:3) of each anti-CD52 chimeric and humanized antibody starting at 100 μg/mL. […] Cells were washed 3 times in ice-cold PBS/5% FBS before and after each incubation. Cells were fixed with PBS containing 2% methanol-free paraformaldehyde and evaluated by flow cytometry. The flow cytometry data was analyzed using GraphPad Prism software to determine an EC₅₀ value with 95% confidence interval.

human CD52 (wildtype) [3] = molecular target: T1, human CD52 (wildtype); test: flow cytometry, huCD52 transgenic mouse CD4+ T cells, FITC goat F(ab)2 anti-human Fc gamma secondary, GraphPad Prism fit (Example 29)
Procedure: as §1

[4] = molecular target: T2, MUT 1 alanine-scanning mutant hCD52 …; test: Biacore T100 SPR, antibody immobilized, peptide injected at up to 500 nM;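 note: Amine-coupled antibody (10,000 RU), 25 °C in HBS-EP+ pH 7.4, 5 min association then 5 min dissociation, 1:1 fit with blank flow cell and 0 nM double-referencing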
Source text: (§2) The carboxymethyl dextran surface was activated using a 1:1 mixture of 0.1M N-hydroxysuccinimide (NHS) and 0.4M N-ethyl-N′-(3-dimethylaminopropyl)carbodiimide hydrochloride (EDC), allowing the surface to bind reactive amine groups on the antibodies. […] Following antibody immobilization, the reactive sensor chip surface was quenched using 1M ethanolamine hydrochloride/NaOH pH 8.5. One flow cell on each chip was a blank reference surface, and subsequent flow cells were immobilized with 10,000 RU of antibody.
(§3) Peptides were diluted into the assay running buffer, HBS-EP+ (10 mM HEPES, 150 mM NaCl, 0.05% P20 surfactant, 3 mM EDTA, pH 7.4). Duplicates of 100 nM samples were included. […] The T100 instrument sample chamber and assay temperatures were set to 4° C. and 25° C., respectively. The human CD52 peptide samples were injected for five minutes at a 50 μl/min flow rate to measure association, and washed in HBS-EP+ for five minutes at a 50 μl/min flow rate to measure dissociation. The antibody surface was stripped of any remaining bound peptide using a sixty second injection of 10 mM glycine-HCl pH 2.0 at a 50 μl/min flow rate. Analysis was performed using Biacore T100 Kinetics Evaluation software v2.0 (GE Healthcare). Data was fit to a 1:1 model with reference flow cell and 0 nM concentration subtraction (double-reference subtraction).

[5] = molecular target: T3, MUT 2 alanine-scanning mutant hCD52 …; test: as above
Source text: as §2, §3

[6] = molecular target: T4, MUT 3 alanine-scanning mutant hCD52 …; test: as above
Source text: as §2, §3

[7] = molecular target: T5, MUT 5 alanine-scanning mutant hCD52 …; test: as above
Source text: as §2, §3

[8] = molecular target: T6, MUT 6 alanine-scanning mutant hCD52 …; test: as above
Source text: as §2, §3

[9] = molecular target: T7, MUT 7 alanine-scanning mutant hCD52 …; test: as above
Source text: as §2, §3

[10] = molecular target: T8, MUT 8 alanine-scanning mutant hCD52 …; test: as above
Source text: as §2, §3

[11] = molecular target: T9, MUT 9 alanine-scanning mutant hCD52 …; test: as above
Source text: as §2, §3

[12] = molecular target: T10, MUT 10 alanine-scanning mutant hCD52 …; test: as above
Source text: as §2, §3

[13] = molecular target: T11, MUT 12 alanine-scanning mutant hCD52 …; test: as above
Source text: as §2, §3

[14] = molecular target: T12, WT 1 wildtype human CD52 peptide; test: as above
Source text: as §2, §3

human CD52 (wildtype) [15] = molecular target: T1, human CD52 (wildtype); test: flow cytometry, CHO-CD52 cells
human CD52 (wildtype) [16] = molecular target: T1, human CD52 (wildtype); test: flow cytometry, CD4+ T cells, 8-point titration
Procedure: as §1

[17] = molecular target: T13, MUT 4 alanine-scanning mutant hCD52 …; test: Biacore T100 SPR, antibody immobilized, peptide injected at up to 500 nM;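 note: Amine-coupled antibody (10,000 RU), 25 °C in HBS-EP+ pH 7.4, 5 min association then 5 min dissociation, 1:1 fit with blank flow cell and 0 nM double-referencing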
Source text: as §2, §3

[18] = molecular target: T9, MUT 9 alanine-scanning mutant hCD52 …; test: Biacore T100, antibody immobilised on a CM5 chip, peptide injected
Source text: as §2, §3

Row | Binder | EC50 (human CD52 (wildtype) [1]) [mg/L] | EC50 (human CD52 (wildtype) [2]) [µM] | EC50 (human CD52 (wildtype) [3]) [µM] | binding result [4] | binding result [5] | binding result [6] | binding result [7] | binding result [8] | binding result [12] | binding result [13] | binding result [14] | further results
1 | B1 | 2.23 | – | – | – | – | – | – | – | – | – | – | –
2 | B2 | 0.95 | 0.0224 | 0.0344 | – | – | – | – | – | – | – | – | –
3 | B3 | 1.32 | 0.0259 | 0.0308 | – | – | – | – | – | – | – | – | –
4 | B4 | – | – | – | binds | binds | binds | binds | binds | binds | binds | binds | binding result [9]: binds; binding result [10]: binds; binding result [11]: binds
5 | B5 | 6.05 | – | – | – | – | – | – | – | – | – | – | EC50 (human CD52 (wildtype) [15]): 5 to 7 mg/L
6 | B6 | 1.36 | 0.0219 | 0.0251 | – | – | – | – | – | – | – | – | –
7 | B7 | – | 0.0073 | 0.0132 | – | – | – | – | – | – | – | – | –
8 | B8 | – | 0.011 | 0.0136 | binds | binds | binds | binds | binds | binds | binds | binds | fold lower EC50 than Campath-1H® (human CD52 (wildtype) [16]): 2 fold; binding result [17]: binds; binding result [11]: binds
9 | B9 | – | 0.0106 | – | binds | binds | binds | binds | binds | binds | binds | binds | binding result [17]: binds; binding result [18]: binds
